Assay results reported in US20220411495A1, “POSITIVE ALLOSTERIC MODULATORS OF THE CALCIUM-SENSING RECEPTOR” (VIB VZW, priority 2019, published 2022).
Residue numbers refer to the chain shown, from its start. Values belong to the molecule of their own block, whether it stands above or below them.

Molecular target: T1, rat CaSR (rCaSR) (Rattus norvegicus, UniProt P48442)
T1 construct: mGlu5 signal peptide (N); expressed in transfected cells; host or cells: HEK293A, transient transfection
T1 sequence (P48442 20-1079): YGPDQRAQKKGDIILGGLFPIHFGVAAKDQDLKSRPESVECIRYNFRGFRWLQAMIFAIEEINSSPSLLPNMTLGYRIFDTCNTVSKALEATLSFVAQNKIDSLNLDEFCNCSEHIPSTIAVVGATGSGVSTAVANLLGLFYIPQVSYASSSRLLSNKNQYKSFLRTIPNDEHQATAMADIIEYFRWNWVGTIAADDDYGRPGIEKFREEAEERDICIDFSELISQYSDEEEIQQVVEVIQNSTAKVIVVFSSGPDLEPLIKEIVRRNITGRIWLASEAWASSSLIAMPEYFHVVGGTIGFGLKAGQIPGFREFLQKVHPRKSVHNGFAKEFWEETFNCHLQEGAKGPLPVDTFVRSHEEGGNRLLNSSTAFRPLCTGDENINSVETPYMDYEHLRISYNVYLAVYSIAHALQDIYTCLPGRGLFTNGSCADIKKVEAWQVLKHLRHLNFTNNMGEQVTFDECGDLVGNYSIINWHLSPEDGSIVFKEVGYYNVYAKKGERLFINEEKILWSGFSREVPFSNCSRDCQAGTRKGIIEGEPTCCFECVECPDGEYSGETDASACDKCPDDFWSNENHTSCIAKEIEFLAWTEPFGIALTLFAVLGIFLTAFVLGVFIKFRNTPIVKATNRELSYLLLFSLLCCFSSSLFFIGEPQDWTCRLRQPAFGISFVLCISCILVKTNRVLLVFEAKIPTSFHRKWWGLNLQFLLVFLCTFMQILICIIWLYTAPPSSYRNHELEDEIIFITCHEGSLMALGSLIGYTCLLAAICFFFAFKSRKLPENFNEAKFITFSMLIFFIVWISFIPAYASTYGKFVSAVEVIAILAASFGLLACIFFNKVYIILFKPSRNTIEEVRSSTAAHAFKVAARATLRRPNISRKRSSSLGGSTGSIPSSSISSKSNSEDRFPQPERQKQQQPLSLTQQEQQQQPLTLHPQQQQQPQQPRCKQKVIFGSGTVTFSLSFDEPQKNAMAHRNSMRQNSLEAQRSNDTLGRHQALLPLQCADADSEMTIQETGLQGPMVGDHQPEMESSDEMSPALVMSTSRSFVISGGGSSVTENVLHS
Test: IP1 accumulation assay, HEK293A cells transiently transfected with HA-rCaSR WT
Type: cell-based
Settings: IP1 accumulation at EC20 Ca2+
Excerpt: The rat and human CaSR orthologs have an overall sequence identity of 93.6% and an ECD sequence identity of 95.7% (SEQ ID NO:1 aligned with SEQ ID NO:2). Thus, differences in CaSR nanobody activity are unlikely to be observed. […] Besides CaSR Nb36, similar results were obtained among the nanobodies that originate from the same family (FIGS. 7E and 7F). For Nb36, the increase in maximum response relative to Nb4 and Nb11 previously observed with human CaSR was absent (FIGS. 7C and 7F). The binding site of these nanobodies still remains to be found. The difference in CaSR Nb36 maximum response and the high interspecies sequence identity could bring us one step closer to finding the binding site for CaSR Nb4, Nb11 and Nb36.
All cell lines utilized in this study were grown at 37° C. and 5% CO2. The HEK293A (RRID: CVCL_6910) and stable Flp-In HEK293 cells were cultured in Dulbecco's Modified Eagle Medium (DMEM, #31966021) supplemented with 10% dialyzed Fetal Bovine Serum (dFBS) and 1% 10,000 units/mL penicillin and 10,000 μg/mL streptomycin mixture (pen/strep). The stable Flp-In CHO cells were cultured in F-12K medium (#21127022) supplemented with 10% dFBS and 1% pen/strep. Additionally, the stable Flp-In HEK293 and Flp-In CHO cell lines were cultured in the presence of respectively 200 and 500 μg/mL hygromycin B. For pharmacological characterization, Flp-In HEK293 HA-hCaSR WT cells were seeded in poly-D-lysine-coated clear 96 well tissue culture plates (Corning, Corning, N.Y., USA) at a density of 50,000 cells/well 18 h prior to assay. Experiments with HA-rCaSR WT and HA-hCaSR S170A required transient transfection of HEK293A cells 24 h prior to assay. DNA construct and Lipofectamine 2000 were diluted in Opti-MEM and mixed together after 5 minutes incubation at room temperature. For HA-rCaSR WT, 30 ng/well rCaSR DNA diluted in 25 μL/well Opti-MEM was mixed with 0.25 μL/well Lipofectamine 2000 in 25 μL/well Opti-MEM. For HA-hCaSR S170A, 40 ng/well […] DNA diluted in 25 μL/well Opti-MEM was mixed with 0.25 μL/well Lipofectamine 2000 in 25 μL/well Opti-MEM. The DNA:Lipofectamine 2000 mixtures were incubated 20 minutes at room temperature after which 50 μL/well was added to a poly-D-lysine-coated clear 96 well tissue culture plate. Next, 100 μL/well of a 400,000 cells/mL HEK293A cell solution prepared in culture media was added and the plate was placed at 37° C. and 5% CO2 (final cell density 40,000 cells/well).
Inositol monophosphate (IP1) accumulation was measured using the commercially available HTRF® IP1 accumulation kit (Cisbio Bioassays, Codolet, France) and an EnVision multimode plate reader (PerkinElmer, Waltham, Mass., USA). Unless stated otherwise, the cells were washed once with 100 μL/well assay buffer and stimulated for 30 minutes at 37° C. with 50 μL/well ligand(s) diluted in assay buffer supplemented with 20 mM LiCl. Following stimulation, the cells were washed once with 100 μL/well and lysed for 30 minutes at room temperature with 30 μL/well lysis buffer provided with the kit. The lysed cells were diluted 1:2 with assay buffer after which 10 μL/well was pipetted to a white 384-well OptiPlate (PerkinElmer, Waltham, Mass., USA). Next, 10 μL of a detection solution consisting of 2.5% IP1-d2 conjugate and 2.5% anti-IP1 antibody diluted in assay buffer was added to each well. Fluorophore emissions were measured after the plate was stored in the dark for 1 h. The 615/665 nm emission ratios measured upon excitation at 340 nm were converted to IP1 concentrations with an IP1 standard curve according to the manufacturer's instructions.

[1] = three independent experiments in triplicate

Max. response (fold over basal ± S.E.M.), rat ortholog: 3.43 ± 0.76 fold over basal
EC50 (three independent experiments in triplicate, read-out: Potency (pEC50 ± S.E.M.), rat ortholog (converted)): 257 nM
Molecule: COc1cccc([C@@H](C)NCCCc2ccccc2Cl)c1 [NPS R-568, reference compound]

Max. response (fold over basal ± S.E.M.), rat ortholog: 2.88 ± 0.13 fold over basal
Potency (pEC50 ± S.E.M.), rat ortholog [1]: 6.31 ± 0.07
B1: Nb15: llama-derived CaSR-specific nanobody acting as PAM, SEQ ID NO:10 (protein)
VHH: QVQLVESGGGLVQAGGSLRLSCAASGRTFNNYHMAWFRQAPGKEREFAAAISRRAGTTYYADSVKGRFTISRDNAKNTVYLQMNSLKPEDTAVYYCAADPDTYGVSYLARKYDYWGQGTQVTVSS
modifications: CaSR Nb15

Max. response (fold over basal ± S.E.M.), rat ortholog: 1.28 ± 0.12 fold over basal
B2: Nb5: llama-derived CaSR-specific nanobody, weakest PAM, SEQ ID NO:8 (protein)
VHH: QVQLVESGGRLVQDGGSLRLSCAASGLTFSDYSMGWFRQVPGKEREFVAVIRRSNDSTYYADFVKGRFTISRDNAKNTVYLQMNSLQPEDTAVYSCAADRGGVGLTSAQTYAYWGQGTQVTVSS
modifications: CaSR Nb5

Max. response (fold over basal ± S.E.M.), rat ortholog: 3.01 ± 0.51 fold over basal
Potency (pEC50 ± S.E.M.), rat ortholog [1]: 6.46 ± 0.07
B3: Nb2: llama-derived CaSR-specific nanobody acting as PAM, SEQ ID NO:9 (protein)
VHH: QVQLVESGGGLVQAGSSLRLSCAASGRTFSNYRMAWFRQAPGKEREFVAVISRGGGGADYADSVKGRFTISRDNVKNTVSLQMNSLKPEDTAVYFCAARISGFSYYTSVDRYDYWGQGTQVTVSS
modifications: CaSR Nb2

Max. response (fold over basal ± S.E.M.), rat ortholog: 2.90 ± 0.23 fold over basal
Potency (pEC50 ± S.E.M.), rat ortholog [1]: 6.24 ± 0.11
B4: Nb11: llama-derived CaSR-specific nanobody acting as PAM, SEQ ID NO:6 (protein)
VHH: QVQLVESGGGLVQAGGSLRLSCAASGRTFSTYRMGWFRQGPGKEREFVAAITATGVKTYYTDSVKGRFTISRDNAKNTVYLQMNSVQPEDTAVYSCAARIKAIFTAQQAATITDYDYWGQGTQVTVSS
modifications: CaSR Nb11

Max. response (fold over basal ± S.E.M.), rat ortholog: 3.10 ± 0.12 fold over basal
Potency (pEC50 ± S.E.M.), rat ortholog [1]: 6.78 ± 0.03
B5: Nb36: llama-derived CaSR-specific nanobody acting as PAM, SEQ ID NO:7 (protein)
VHH: QVQLVESGGGLVQAGESLRLSCAASGRTFSSYRMGWFRQGPGKEREFVAAITATGVRTYYADSVKGRFTISRDNAKNTVYLQMNSLQPDDTAVYLCAARRKAIFSVQQALTITDYDDWGQGTQVTVSS
modifications: CaSR Nb36

Max. response (fold over basal ± S.E.M.), rat ortholog: 2.89 ± 0.13 fold over basal
Potency (pEC50 ± S.E.M.), rat ortholog [1]: 6.29 ± 0.02
B6: Nb10: llama-derived CaSR-specific nanobody acting as PAM, SEQ ID NO:3 (protein)
VHH: QVQLVESGGGLVQPGDSLRVSCAASGGSFRSYAMAWFRQAPGKEREFVAAMSGTYGSTIYSDSMKGRFTISRDNAKKMVYLRMNSLRPEDTAVYYCAGYYSGAYYGTPKTDYTEYDSWGQGTQVTVSS
modifications: CaSR Nb10

Max. response (fold over basal ± S.E.M.), rat ortholog: 3.07 ± 0.39 fold over basal
Potency (pEC50 ± S.E.M.), rat ortholog [1]: 6.00 ± 0.28
B7: Nb37: llama-derived CaSR-specific nanobody acting as PAM, SEQ ID NO:4 (protein)
VHH: B6 VHH with Q39R, S61A, P88A
modifications: CaSR Nb37

Max. response (fold over basal ± S.E.M.), rat ortholog: 3.03 ± 0.63 fold over basal
Potency (pEC50 ± S.E.M.), rat ortholog [1]: 7.09 ± 0.09
B8: Nb4: llama-derived CaSR-specific nanobody acting as PAM, SEQ ID NO:5 (protein)
VHH: QVQLVESGGGLVQAGGSLRLSCAASGRTFSTYRMGWFRQGLGKEREFVAAITANGVRTFYTDSVKGRFTISRDNAKNTLYLQMNSLQPDDTAVYLCAARRKGIFTVQQAQDITDWDYWGQGTQVTVSS
modifications: CaSR Nb4
